Measured values as given in the nanobody polyreactivity screen of Harvey et al. (2022).

Assay: yeast display, Sf9 membrane polyspecificity reagent, FACS + sequencing; frameworks hold sequencing errors
Method in brief: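 Nanobodies from a synthetic yeast display library (Saccharomyces cerevisiae BJ5465), induced 36–48 hours with galactose, were stained 1 hour at 4 °C with 10% biotinylated, detergent-solubilized Sf9 membrane reagent, enriched on streptavidin microbeads, then FACS-sorted. Anti-HA (expression) and streptavidin (reagent binding) fluorescence set low and high (top ~1%) gates. Polyreactivity labels come from the gate of origin. Genes were colony-PCR amplified, MiSeq 2 × 250 sequenced and filtered by CDR length.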

Row | Sequence | polyreactivity (PSR sort gate)
1 | QVQLVESGGGLVQAGGSLRVSCAASGSIFDSNAMGWYRQAPGKERELVASITSSGGSTYYADSVKGRFTISRDNAKNTVYLQMNSLKPEDTAVYYCAKRAWTGYGYYYWGQGTQVTVSS | high polyreactivity
2 | QVQLVESGGGLVQAGGSLRLSCAASGRIFRHYAMGWYRQAPGKERELVAAINWNGGSTYYADSVKGRFTISRDNAKNTVYLQMNSLKPEDTAVYYCAARYRYVRGMDYWGQGTQVTVSS | high polyreactivity
3 | QVQLVESGGGLVQAGGSLRLSCAASGIIFYLYAMGWYRQAPGKERELVAAISGSGGNTYYADSVKGRFTISRDNAKNTVYLQMNSLKPEDTAVYYCAVAVFVWYAVIPYAEYDYWGQGTQVTVSS | high polyreactivity
4 | QVQLVESGGGLVQAGGSLRLSCAASGITFSYYAMGWYRQAPGKERELVAAISYTSGSTYYADSVKGRFTISRDNAKNTVYLQMNSLKPEDTAGYYCAARSRWSKQFRYDYWGQGTQVTVSS | high polyreactivity
5 | QVQLVESGGGLVQAGGSLRLSCAASGRIFTGYAMGWYRQAPGKERELVAAINSGGRTNYADSVKGRFTISRDNAKNTVYLQMNSLKPEDTAVYYCAARYTNYGGYYWGQGTQVTVSS | high polyreactivity
6 | QDQHVESGGGLVQAGGSLRLSCAASGRTFVPYAMGWYRQAPGKERELVATISRSGGRTNYADSVKGRFTISRDNAKNTVYIQMNSLKPEDTAVYYCAATGFLTWRHMYYWGQGTQVTVSS | high polyreactivity
7 | QVPLVESVGGLVQAGGSLRLSCAASGLTFWRYAMGWYRQAPGKEREFVAAISSGGSTNYADSVKGRFTISRDNAKNTVYLQMNSLKPEDTAVYYCNARYYHKRSTRVIFPYDYWGQGTQVTVSS | high polyreactivity
8 | QVQLVESGGGLVQAGGSLRLSCAASGFIFRAYAMGWYRQAPGKERELVAAISRSGSRTYYADSVKGRFTISRDHAKNTVYLQMNSLKPEDTAVYYCAADHGSLLYDYWGQGTQVTVSS | high polyreactivity
9 | QVQLVESGGGLVQAGGSLRLSCAASGRIFSSYDMGWYRQAPGKERELDAAISSRTGITNYADSVKGRFTISRDNAKNTVYLQMNSLKPEDTAVYYCAKVGWYGYTRSYKYGYWGQGTQVTVSS | high polyreactivity
10 | QVQLVESGGGLVQAGGSLRLSCPASGRIFYVYAMGWYRQAPGKERELVAAITSSGGSTNYADSVKGRFTISRDNAKNTVYLQMNSLKPEDTAVYYCAAKPYYIPTRTYSHYNFWGQGTQVTVSS | high polyreactivity
11 | QVELQVSGGGLVRAGGSLRLSCAASGNIFDADIMGWYRQAPGKERELVASITGGGSTSYAESAKGRFTISRDNAKNAVYLQMNRLKPEDTAVYYCAAAAYYADFDYWGQGTQVTVSS | low polyreactivity
12 | QVQLVESGGGLVQAGGSLRLSCAASGSTFGGNGMGWYRQAPGKEREFVATITWRSGSTYYADSVKGRFTISRDKAKNTVYLKMNILKPEDSAVYYCAKYTSSRRNTWYYYWGQGTEVTVSS | high polyreactivity
13 | QVQLVESGGGLVQAGGSLRLSCAASGSIFKYYALGWYRQAPGKERELVAAITSGVSTYADSVKGRFTISRDNAKNTVYLQMNSLKPEDTAVYYCAVRVTGPRGDYWGQGTQVTVSS | low polyreactivity
14 | QVQLVESGGGLVQAGGSLRLSCDASGSTFNANAMGWYRQAPWKERVLVAAISWNGGRTYYADSVKGRFTISRDNAKNTVYLQMNSLKPEDTAVYYCALVYTAGRNYYYWGQGTQVTVSS | high polyreactivity
15 | QVQLVESGGGLVQAGGSLRLSCAASGSTFPYYAMGWYRQAPGKERELVAAISRRGGSTYYADSVKGRFTISRDNAKNTVYLQMNSLKPEDTAVYYCAAGYYPSSSGDDYWGQGTQVTVSS | high polyreactivity
16 | QVQLVESAVGLVQAGGSLRLSCAASGILFARYAMGWYRQAPGKERELVAVISGSGGSTYYADSVKGRFTISRDNAKNTVYLQMNSLKPEDTAVYYCNAEFESGHDLDWYDYWGQGTQVTVSS | low polyreactivity
17 | QVQLVESGGGLVQAGGSLRLSSAASGRIFIGNAMGWYRQAPGKERELVAAISKGGGSTYYADSVKGRFTISRDNAKNTVYLQMNSLKPEDTAVYYCNKLRYPLLPPKYYYWGQGTQVTVSS | high polyreactivity
18 | QVQLVESGGGLVQAGGSLRLSCAASGFTFWKYAMGWYRQAPGKEREFVPAISWSGGNTYYADSVKGRFTISRDNAKNTVYLQMNSLKPEDTADYYCARRGRYYLYTDDYDYWGQGTQVTVSS | high polyreactivity
19 | QVQLVESGVGLVQAGGRLRLSCAASGSIFPTNAMGWYRQAPGKERELVAAISGSGGSTYYADSVKGRFTISRDNAKNTVYLQMNSLKPEDTAVYYCAVKPAPTRTTKRLVYGYNYWGQGTQVTVSS | high polyreactivity
20 | QVQLVESGGGLVQAGGSLRLSCAASGSICSLYAKGWYRQEPGKERELVAAISSSGTSTYYADSVKGRFTISRDNSKNTVYLQMNSLKLEDTAVYYCNAYRRRATYNGDYWGQGTQLTVSS | high polyreactivity
21 | QVQLVESGGGLVQAGGSLSLSCAASGRIFSTYAMGWYRQAPGKERELVAAITSRGTSTYYADSVKGRFTISRDNAKNTVYLQINSLKPEDSAVYYCAARRERWSSSIVGYWGQGTQVTVSS | high polyreactivity
22 | QVQLVESGGGLVQAGGSLRLSCAASGGIFSRYGLGWYRQAPGKERELVAAITGRGGSTYYADSVKGRFTISRDNAKNTVYLQMNSLKPEDTAVDYCAAKVRSLNWFDYWGQGTQVTVSS | high polyreactivity

Row | Sequence | polyreactivity (PSR sort gate)
23 | QVQLVESGGGLVQAGGSLRVSCAASGSTFPPSAMGWYREAPGKERELGAAIDWSDGTTYYADSVKGRFTISRDYAKNTVYLQMNSLKPEDTAVYYCAADPVLDEYDYWGQGTQVTVSS | low polyreactivity
24 | QVQLVESGGGLVQAGGSLRLSCSASGIIFGFYAMGWYRQAPGKERELVAAITNDGGNTNYADSVKGRFTISRDNAKNTVYLQMNSLKPEDTAVYYCNADRTQDRNPYTYATFDYWGQGTQVTVSS | low polyreactivity
25 | QVQLVESGGGLVQAGGSLRLSCAASGFNFVSYAMGWYRKAPGKERELVAVIDNSDGDTYYADSVKGRFTISRDNAKNTVYLQMNSLKPEDTAVYYCARDVSARGYLPFDYWGQGTQVTVSS | low polyreactivity
26 | QVQLVESGGGLVQAGGSLRLSCAASGNTFNAFNAMGWYRQAPGKERELVAAISRRGGSTYYADSVKGRFTISRDNAKNTVYLQMNSLKPEDTAVYYGAAYYSRSKYDYWGQGTQVTVSS | high polyreactivity
27 | QVQLVESGGGLVQAGGSLRLSCSASGSTITTYAMGWYRQAPGKERELVAAISTNGGRTCYADSVKGRFTISRDYAKNTVSLQMNSLKPEDTAVYYCAAEYGLYAPGYYYWGQGTQVTVSS | low polyreactivity
28 | QVQLVESGGGLVQAGGSLRLSCAASGSTFWIYAMGWYRPAPGKERELVAAITLRSGSTYYADSVKGRFTISRDNAKNTVYLQMNSLKPEDTAVYYCAKDYYGTYYAQYNYWGQGTQVTVSS | low polyreactivity
29 | QVQLVETGGGLVQAGGSLRLSCEASGTIFTYAMGWYRQAPRKERELVAVISWSGASTYYADSVKGRLTISRDNAKNSVYLQMNSLKTEDTAVYYCAVYRYYKLVHLYGFDYWGQGTQVTVSS | high polyreactivity
30 | QVQLVESGGGLVQAGGSLRLSCAASGSTFAKYAMGWYRQAPGKESELVASIRLSGGSTYYADSVKGRFTISRDNAKNTVYVQRNSLKPEDTAVYYCNKQFATFYYGFDYSYWGQGTQVTVSS | low polyreactivity
31 | QVQLVESGGGLVQAGGSLRLSCAASGFTFTYYAMGWYRQAPGKERELVAAISWSGDSTYYADSVKGRFTISRDNAKNTVYLQMNSLKPEDTAVYYCATEYSHTYDYWGQGTQVTVSS | low polyreactivity
32 | QVQLVETGGGLVQAGGSLRLSCAASGRTFGYYTMGCYRQAPGKERELVAGISSAGSTNYADSVKGRFTISRDNAKNTVYLQMNSLKPADTAVYYCAARTYKVIQNNSWETYYYWGQGTQVTVSS | high polyreactivity
33 | QVQLVESGGGLVQPGGSLRLSCAASGGIFYGYAMGWYRQAPGKERELVAAISSTGGRTYYADSVKGRFTISRDNAKNTVYLQMNSLKPEDTAVYYCAAEDFTRQFEYWGQGTQVTVSS | low polyreactivity
34 | QVQLVESGGGLVQAGGSLRLSCAASGSIFFINAMGWYRQAPGKERELVASISQSGVSTYYADSVKGRFTISRDNAKNTVYLQMNSLKPEDTAVYYCATGPVRRARYVWSYTYYYWGQGTQVTVSS | low polyreactivity
35 | QVQLVESGGGLVQAGGSLRLSCAASGSIFSQYVMGWYRQAPGNERELVAAIVWSSGSTYYADSVKGRFTMSRDNAKNTVYLQMNSLKPEDTAVYYCAARTKAFKPGYGYWGQGTQVTVSS | low polyreactivity
36 | QVQLVESGGGLVQAGGSLRLSCAASGFTFPPYAMGWYRQAPGKERELVAAITSSGGRTYYADSVKGRFTISRDNAKNTVYLQMNSLKPEDTAVYYCAAYGRFARMNYWGQGTQVTVSS | high polyreactivity
37 | QVQLVESGGGLVQAGGSLRLSCAASGSIFSENAMGWYRQAPGKERELVAAITGGASTNYADSVKGRFTISRDNAKNTVYLQMNSLKPEDTAVYYCAADANRTKFDYWGQGTQVTVSS | low polyreactivity
38 | QVQLVESGGGLVQAGGSLRLSCAASGSIFYSYAMGWYRQAPGKERELVATITRRGGSTYYADSVKGRFTISRDNAKNTVYLQMNSLKPEDTAVYYCAVKPVRYAYRIYDLRFEYWGQGTQVTVSS | high polyreactivity
39 | QVQLVESGGGLVQAGGSLRLSCAASGRTFGGYAMGWYRQAPGKERELVASITRSGGGTYYADSVKGRFTISRDNAKNTVYLQMNSLKPEDTAVYYCAVYFANPYSVYGLGVYSTLNYWGQGTQVTVSS | low polyreactivity
40 | QVQLVESGGGLVQAGGSLRLSCAASGRTFKHYAMGWYRQAPGKERELVAGISRGGGITYYADSVKGRFTISRDNAKNTVYLQMNSLKPDDTAVYYCNAYDLYKSGGDYWGQGTQVTVSS | high polyreactivity
41 | QVQLVESGGGLVQAGGSLRLSCAASGFIFSYYAMGLYRQAPGKERELVAAINWTGGSTYYADSVKGRFTISRDNAKNTVYLQMNSLKPEDTAVYYCAADSHLRGRSEDYWGQGTQVTVSS | high polyreactivity
42 | QVQLVESGGGLVQAGGSLRLSCAASGSTFRNYAMGWSRQAPGKERELVAAISGSGGRTKYADSVKGRFTISRDNAKNTVYLQMNSLKPEDTAVYYWNARFPDWALSEISHSTTYGLWGQGTLVTVSS | low polyreactivity
43 | QVQLVESGGGLVQAGGSLRLSCAASGSIFSQYAMGWYRPAPGKERELVAAISRSGGRTSYADSVKGRFTISRDNAKNTVYLQMNSLKPEDTAVYYCAARGPTNMGYWGQGTQVTVSS | high polyreactivity
